# Substitutions are numbered along the chain they refer to.
# B1: H8L1 (antibody, human IgG1, V domains shown)
# VH: QVQLVQSGAEVKKPGASVKVSCKASGYIFTSYWMHWVKQAPGQGLEWIGEIDPSDSYTNYNQKFKGRVTMTLDKSTSTTYMELSSLRSEDTAVYYCARGYGNYGDYWGQGTLVTVSS
# VL: DVVMTQSPLSLPVTPGEPASISCRSSKSLLHSNGITYLYWYLQKPGQSPQLLIYQMSNLASGVPDRFSSSGSGTDFTLKISRVEAEDVGVYYCAQNLELPWTFGGGTKVEIK
# notes: human IgG1 isotype
# B2: enfortumab (antibody, V domains shown)
# VH: EVQLVESGGGLVQPGGSLRLSCAASGFTFSSYNMNWVRQAPGKGLEWVSYISSSSSTIYYADSVKGRFTISRDNAKNSLSLQMNSLRDEDTAVYYCARAYYYGMDVWGQGTTVTVSS
# VL: DIQMTQSPSSVSASVGDRVTITCRASQGISGWLAWYQQKPGKAPKFLIYAASTLQSGVPSRFSGSGSGTDFTLTISSLQPEDFATYYCQQANSFPPTFGGGTKVEIKR
# Tests used:
# [1] = test system: SUM190 cells subcutaneously engrafted in CB17-SCID mice; experiment: In vivo efficacy of ggfg-Dxd ADCs, Nectin-4 low/SUM190 mouse model of human breast cancer; settings: single i.v. injection 3 mg/kg; each antibody conjugated to ggfg-Dxd, DAR=8; FIG. 4
# Method: SUM190 cells were subcutaneously engrafted in CB17-SCID immunodeficient mice at a dose of 0.5 million cells in 100 μl of Matrigel with growth factor diluted at ½ in PBS. When tumors reached a volume between 195 and 250 mm3, mice were randomized into groups of 9 mice for intravenous treatment with a single injection of 3 mg/kg of camptothecin ADCs. Tumor growths were followed twice a week. Kaplan Meier survival curves were established by using GraphPad Prism V7 software according to the following criteria: When the tumor volume reached 1500 mm3, mice were euthanized and considered dead on the day of sacrifice (D).
# [2] = target: HER2 on human breast cancer tumor cells (human) (UniProt P04626); experiment: flow cytometry (FL2-A) on SUM185 human breast cancer cells; unstained cells 71.5
# [3] = target: T1, human Nectin-4 expressed on cells (human, UniProt Q96NY8 32-510); experiment: as above
# T1 sequence: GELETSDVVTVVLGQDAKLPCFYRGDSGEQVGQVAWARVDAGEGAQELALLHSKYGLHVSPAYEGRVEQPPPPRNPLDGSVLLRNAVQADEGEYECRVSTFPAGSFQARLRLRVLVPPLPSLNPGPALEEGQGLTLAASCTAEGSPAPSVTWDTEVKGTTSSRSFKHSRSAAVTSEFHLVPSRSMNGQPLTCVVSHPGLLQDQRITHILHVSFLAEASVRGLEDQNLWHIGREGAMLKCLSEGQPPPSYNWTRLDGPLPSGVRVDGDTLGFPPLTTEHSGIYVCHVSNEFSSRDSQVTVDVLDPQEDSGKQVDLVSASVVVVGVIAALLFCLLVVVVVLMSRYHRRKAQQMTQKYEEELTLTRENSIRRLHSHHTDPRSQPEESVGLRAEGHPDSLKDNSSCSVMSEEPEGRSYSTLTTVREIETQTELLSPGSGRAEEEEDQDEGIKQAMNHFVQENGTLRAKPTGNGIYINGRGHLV
# SUM185 cells = experiment: Comparative in vitro killing of SUM185 cells (model of anti-HER2 resistance), CTG; type: cell-based, human; settings: 5 days, 5E7 ADC DAR=8, PADCEV DAR=4, FIG. 5
# Method: This setting was used as a model of anti-HER2 resistance. SUM185 cells express Nectin-4 at relatively high levels, with Nectin-4 expression levels about twice that of HER2 in these cells (see Example 1). In this experiment, the 5E7 antibody was tested as an ADC having DAR=8 along with PADCEV™ (DAR=4, specification for FDA-approved PADCEV™) and control antibodies all conjugated with the same toxin at equivalent drug to antibody ratios. 5E7 was conjugated with a camptothecin analogue Dxd via the ggfg-Dxd linker.
# Briefly, dose-ranges of each tested Ab (starting point 150 nM, dilution factor 2 for 3 points, then 5 for 5 points) were incubated on cells for 5 days before cell viability measurement by addition of CTG substrate. Luminescence vs. Ab concentration was plotted on graph.
# For each ADC, a concentration range of ADC was incubated with nectin-4-expressing cells. After incubation, CTG substrate was added at 1:1 ratio and the luminescent signal was read with a plate reader (Enspire), allowing quantification of the ATP present (indicator of metabolically active cells) which was proportional to cell viability.
# [4] = test system: MC-38 cells endogenously expressing MDR1 P-glycoprotein (Pgp), engineered to express Nectin-4; experiment: In vitro efficacy of ADCs in Pgp-expressing cancer model (CTG); type: cell-based, murine; settings: 150 nM ADC, normalized to control antibody; cyclosporin A 5 μM; FIG. 10B
# Method: MC-38 cells that endogenously express MDR1 P-glycoprotein (Pgp) were engineered to express Nectin-4 and cultured in DMEM+10% FBS. Cells were either treated with vehicle (DSMO) or with cyclosporin A (5 μM, stock solution in DMSO) known to act as an inhibitor of Pgp, in presence of ADCs.
# The ADCs and the equivalent isotype control ADCs were used at dose range from 150 to 2.3 10^−3 nM. After five days of co-incubation with cells, cell viability was measured by addition of Cell Titer Glo™ (CTG) substrate. Luminescence vs. Ab concentration was plotted.
# UC (patients) = settings: EV-201 Phase 2 study; cited from earlier work
# [5] = target: T1, human Nectin-4 expressed on cells; experiment: flow cytometry on SUM185 cells, antibody at 10 ug/ml
# [6] = target: T1, human Nectin-4 expressed on cells; experiment: flow cytometry on SUM190 cells, antibody at 10 ug/ml
# [7] = target: human Nectin-4 (protein used in the SPR affinity measurements) (human) (UniProt Q96NY8); experiment: SPR, human IgG1
# [8] = target: T1, human Nectin-4 expressed on cells; experiment: cell-based or functional assay
# [9] = target: T1, human Nectin-4 expressed on cells; experiment: cell-based or functional assay; remark: listed apart in the source
# human Nectin-4 = target: T2, human Nectin-4 (Homo sapiens, UniProt Q96NY8); experiment: Binding to human Nectin-4 by SPR; settings: second set (Table 7)
# T2 sequence (Q96NY8 32-510): T1 sequence
# Method: (§1) The antibodies in Table 3 of Example 3 were cloned as human IgG1 isotype antibodies, produced and purified, then tested for binding to human Nectin-4. Affinity of the 16 humanized variants, as well as their association and dissociation constants were assessed by SPR analysis. Table 4 summarizes all the calculated constants (Affinity constant KD (nM), association constant ka (1/Ms) and dissociation constant kd (1/s)).
# as §1, with “Table 6” for “Table 3”, “Example 5” for “Example 3”, “Table 7” for “Table 4”
# [10] = target: T1, human Nectin-4 expressed on cells; experiment: flow cytometry on SUM190 cells, MedFI at saturation
# Method: The humanized antibodies in Table 3 of Example 3 and in Table 6 of Example 5 were cloned, produced and purified, then tested for binding to Nectin-4 expressing cells by flow cytometry. Binding of humanized variants in human IgG1 format was determined on the SUM190 cell line expressing high levels of Nectin-4.
# [11] = target: T3, rat Nectin-4 protein expressed on CHO cells (rat, UniProt Q8R007 31-508 (mouse entry)); experiment: flow cytometry on CHO cells expressing rat Nectin-4, Median MFI (PE)
# T3 construct: no cleavage site is stated; also called Rat Nectin-4 V5
# T3 chain: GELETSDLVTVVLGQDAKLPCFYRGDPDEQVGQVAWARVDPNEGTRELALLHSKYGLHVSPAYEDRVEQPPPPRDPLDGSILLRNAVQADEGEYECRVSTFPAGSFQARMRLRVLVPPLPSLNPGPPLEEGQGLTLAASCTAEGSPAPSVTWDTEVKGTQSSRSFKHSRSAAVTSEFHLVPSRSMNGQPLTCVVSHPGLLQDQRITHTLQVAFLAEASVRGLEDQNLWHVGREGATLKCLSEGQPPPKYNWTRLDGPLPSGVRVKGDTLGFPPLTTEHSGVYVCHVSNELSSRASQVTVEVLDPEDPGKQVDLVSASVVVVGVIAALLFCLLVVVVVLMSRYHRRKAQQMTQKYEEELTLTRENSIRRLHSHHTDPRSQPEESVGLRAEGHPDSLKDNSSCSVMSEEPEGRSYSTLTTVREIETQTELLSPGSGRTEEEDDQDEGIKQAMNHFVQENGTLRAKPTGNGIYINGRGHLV
# Method: (§2) Anti-Nectin-4 antibodies were tested by flow cytometry for binding to different CHO cell lines made to express respectively the mouse, cynomolgus and rat Nectin-4 protein (including an N-terminal V5 tag not shown in the sequences below).
# [12] = target: T4, cynomolgus Nectin-4 protein expressed on CHO cells (cynomolgus, UniProt Q96NY8 32-510 (human entry)); experiment: flow cytometry on CHO cells expressing cynomolgus Nectin-4, Median MFI (PE)
# T4 construct: also called Cyno Nectin-4 V5
# T4 chain: T1 sequence with V39A, I230V, A437T
# Method: as §2
molecule,measurement,setting,value
enfortumab [reference compound],control of tumor growth,[1],no longer showed the ability to control tumor growth
Control Antibody,Median of fluo.,[2],94.5
same,Median of fluo.,[3],94.5
PADCEV™,killing of SUM185 cells / reduction of cell viability,SUM185 cells,able to kill the SUM185 more efficiently than ENHERTU™
same,anti-tumor activity in presence or absence of the Pgp inhibitor cyclosporine,[4],negatively affected by Pgp
same,CR (complete response rate),UC (patients),12%
same,ORR (objective response rate),UC (patients),44%
same,discontinuation due to clinical symptoms,UC (patients),5%
same,discontinuation due to progressive disease as assessed by RECIST,UC (patients),48%
same,"patients that discontinued experienced adverse events, notably neuropathy",UC (patients),18%
anti-Nectin-4 antibody (ASG-22ME modified as a human IgG1 isotype containing a N297Q mutation),MFI,[5],4330 MFI
same,MFI,[6],991 MFI
B1,Kd,[7],19.2 nM
same,koff,[7],0.0048 s⁻¹
same,kon,[7],250000 M⁻¹ s⁻¹
same,"internalization efficiency on SUM190, normalized to chimeric parental antibody (Fab-ZAP, CTG), experiment 1",[8],132 % of chimeric parental
same,"internalization efficiency on SUM190, normalized to chimeric parental antibody (Fab-ZAP, CTG), experiment 2",[8],65.2 % of chimeric parental
same,"internalization efficiency on MDA-MB-468, normalized to chimeric parental antibody (Fab-ZAP, CTG), first column",[9],71.2 % of chimeric parental
same,"internalization efficiency on MDA-MB-468, normalized to chimeric parental antibody (Fab-ZAP, CTG), second column",[9],71.2 % of chimeric parental
same,ka,human Nectin-4; SPR association constant,250000 M⁻¹ s⁻¹
same,kd,human Nectin-4; SPR dissociation constant,0.0048 s⁻¹
same,Kd,"human Nectin-4; SPR, human IgG1 isotype antibodies",19.2 nM
same,Max MedFi,[10],17300 MedFI
B2,EC50 (read off the curve),[11],~0.2 µg/mL
same,EC50 (read off the curve),[12],~0.08 µg/mL

# From patent publication US20250297004A1, “NECTIN-4 BINDING AGENTS” (INNATE PHARMA, priority 2022, published 2025)
